Values of other authors as cited in article PMC4150018.

Molecular target: thrombin (Bos taurus) (UniProt P00735)
Chain of UniProt P00735 (P00735 318-366): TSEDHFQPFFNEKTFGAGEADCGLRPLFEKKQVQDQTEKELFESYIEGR

Substance: rhodniin (Kazal-type thrombin inhibitor) (from UniProt Q06684)
- Ki: 0.2 pM
